Measurements reported in patent US20230212549A1, “COMPOUNDS COMPRISING A […] LIGAND AND USE THEREOF” (priority 2021, published 2023).
Numbered stars: 1 amine (or outer) side, 2 acyl side, 3 side chain; on linkers, the order of the positions; unused ones are H or OH. Bridge positions count the residues as written; N and C are the ends. Square brackets hold non-standard residues; d marks the D form. Primed or numbered codes have the meaning given here. * marks the point of attachment. Ttds″ = 1,13-diamino-4,7,10-trioxatridecan-succinamic acid spacer, O=C(CCC(=O)[*:2])NCCCOCCOCCOCCCN[*:1]; N4Ac = 6-Carboxy-1,4,8,11-tetraazaundecane, an N4-chelator, NCCNCC(CNCCN)C(=O)*; mXylylene = c1cc(C[*:1])cc(C[*:2])c1; 4Pal = N[C@@H](Cc1ccncc1)C(=O)O; Nle = CCCC[C@H](N)C(=O)O; Hexanoyl = CCCCCC(=O)*

How the values were obtained:
Cathepsin F = target: T1, Cathepsin F (UniProt Q9UBX1); test: cell-based or functional assay
T1 sequence (looked up): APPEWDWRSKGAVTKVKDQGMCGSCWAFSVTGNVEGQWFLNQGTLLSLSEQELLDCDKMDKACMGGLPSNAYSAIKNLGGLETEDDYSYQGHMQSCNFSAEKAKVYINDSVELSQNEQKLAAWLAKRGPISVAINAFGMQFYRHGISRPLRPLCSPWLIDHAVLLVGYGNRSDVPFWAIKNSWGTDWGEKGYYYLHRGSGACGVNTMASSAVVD

[1] = target: fibroblast activation protein (FAP) on FAP-expressing human WI-38 fibroblasts (human), Q12884; test: competitive FACS, WI-38 cells, vs Cy5 tracer m3; A = pIC50 >8.0; conditions: remark: other sources report otherwise
[2] = target: human fibroblast activation protein (FAP) on WI-38 fibroblasts (human) (UniProt Q12884); test: competitive FACS, WI-38 cells, Cy5-labeled peptide as competitor; C = pIC50 6.1 to 7.0

B1: Cystatin C (protein, UniProt P01034 27-146, looked up)
chain: SSPGKPPRLVGGPMDASVEEEGVRRALDFAVGEYNKASNDMYHSRALQVVRARKQIVAGVNYFLDVELGRTTCTKTQPNLDNCPFHDQPHLKRKAFCSFQIYAVPWQGTMTLSKSTCQDA
- Percentage inhibition (%), reference at 1 µM (Cathepsin F): 74%

B2: Hex-[Cys(3MeBn)-Pro-Pro-Thr-Glu-Phe-Cys]-Asp-NH2 (peptide)
peptide: Hexanoyl-CPPTEFCD-NH2
modifications: linker 1-7 via mXylylene
SMILES: CCCCCC(=O)N[C@H]1CSCc2cccc(c2)CSC[C@@H](C(=O)N[C@@H](CC(=O)O)C(N)=O)NC(=O)[C@H](Cc2ccccc2)NC(=O)[C@H](CCC(=O)O)NC(=O)[C@H]([C@@H](C)O)NC(=O)[C@@H]2CCCN2C(=O)[C@@H]2CCCN2C1=O
- pIC50 Category (FACS) [1]: > 8 pIC50

B3: N4Ac-Ttds-Nle-[Cys-(3MeBn)-Pro-Pro-Thr-Glu-Ppa-Cys]-OH (peptide)
peptide: N4Ac-[Ttds″][Nle]CPPTE[4Pal]C-OH
modifications: linker 3-9 via mXylylene
SMILES: CCCC[C@H](NC(=O)CCC(=O)NCCCOCCOCCOCCCNC(=O)C(CNCCN)CNCCN)C(=O)N[C@H]1CSCc2cccc(c2)CSC[C@@H](C(=O)O)NC(=O)[C@H](Cc2ccncc2)NC(=O)[C@H](CCC(=O)O)NC(=O)[C@H]([C@@H](C)O)NC(=O)[C@@H]2CCCN2C(=O)[C@@H]2CCCN2C1=O
- pIC50 [2]: 6.1 to 7 pic50
